The record followed here is patent US20240092919A1 (Ablynx, published 2024).

T1: Cynomolgus TCR(AEA41865/AEA41866)-zipper protein (cynomolgus monkey)
T1 construct: also called cyTCR-zipper protein; cynoTCR zipper
T1 TCR alpha: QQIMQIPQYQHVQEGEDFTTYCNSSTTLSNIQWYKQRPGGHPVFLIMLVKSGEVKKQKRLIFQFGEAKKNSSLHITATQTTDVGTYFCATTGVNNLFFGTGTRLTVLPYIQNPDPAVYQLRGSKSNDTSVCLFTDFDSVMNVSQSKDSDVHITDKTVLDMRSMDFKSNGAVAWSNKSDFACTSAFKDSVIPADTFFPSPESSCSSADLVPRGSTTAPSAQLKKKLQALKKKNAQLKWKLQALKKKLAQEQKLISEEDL
T1 TCR beta: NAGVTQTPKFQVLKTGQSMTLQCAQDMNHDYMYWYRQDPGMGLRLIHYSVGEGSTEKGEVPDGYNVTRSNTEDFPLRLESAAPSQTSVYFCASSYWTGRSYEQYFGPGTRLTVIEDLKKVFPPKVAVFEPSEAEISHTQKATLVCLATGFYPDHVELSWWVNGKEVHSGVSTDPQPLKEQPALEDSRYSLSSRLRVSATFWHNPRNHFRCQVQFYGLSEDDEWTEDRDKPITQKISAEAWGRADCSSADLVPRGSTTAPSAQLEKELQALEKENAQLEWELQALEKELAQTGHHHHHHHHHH

T2: Human T cell receptor on human primary T cells (human, UniProt P01848 1-140; P01850 1-176)
T2 construct: whole, on cells
T2 TCR alpha (looked up): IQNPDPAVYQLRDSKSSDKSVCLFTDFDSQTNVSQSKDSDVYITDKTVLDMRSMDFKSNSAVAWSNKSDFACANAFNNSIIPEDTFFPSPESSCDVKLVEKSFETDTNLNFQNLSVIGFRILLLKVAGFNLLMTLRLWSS
T2 TCR beta (looked up): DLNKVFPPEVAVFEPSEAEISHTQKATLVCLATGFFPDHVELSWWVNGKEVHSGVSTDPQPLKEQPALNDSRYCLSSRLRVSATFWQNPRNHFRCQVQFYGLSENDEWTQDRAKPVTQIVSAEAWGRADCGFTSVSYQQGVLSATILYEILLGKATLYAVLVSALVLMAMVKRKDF

B1: T017000163 (VHH)
VHH: EVQLVESGGGVVQPGGSLRLSCVASGDVHQINFLGWYRQAPGKEREKVAHISIGDQTDYADSAKGRFTISRDESKNMVYLQMNSLRPEDTALYFCRAFSRIYPYDYWGQGTLVTVSS
notes: also called T017000745
B2: T017000241 (VHH)
VHH: B1 VHH with Q30K, D58N
B3: T017000235 (VHH)
VHH: B1 VHH with Q30K, Q56H
B4: T017000231 (VHH)
VHH: B1 VHH with Q30K, H50V
B5: T017000258 (VHH)
VHH: B1 VHH with Q30K, D55E
B6: T017000232 (VHH)
VHH: B1 VHH with Q30K, T57V
B7: T017000254 (VHH)
VHH: B1 VHH with Q30K, Q56R
B8: T017000245 (VHH)
VHH: B1 VHH with Q30K, G54A
B9: T017000223 (VHH)
VHH: B1 VHH with Q30K, T57A
B10: T017000234 (VHH)
VHH: B1 VHH with Q30K, H50M
B11: T017000249 (VHH)
VHH: B1 VHH with Q30K, Q56V
B12: T017000233 (VHH)
VHH: B1 VHH with Q30K, T57S
B13: T017000238 (VHH)
VHH: B1 VHH with Q30K, Q56E
B14: T017000200 (VHH)
VHH: B1 VHH with Q30K, G35R
B15: T017000190 (VHH)
VHH: B1 VHH with Q30K, G35S
B16: T017000196 (VHH)
VHH: B1 VHH with Q30K, N32F
B17: T017000208 (VHH)
VHH: B1 VHH with G26Y, Q30K
B18: T017000278 (VHH)
VHH: B1 VHH with Q30K, D105S
B19: T017000638 (VHH, not shown: small tags and cut ends)
VHH: B1 VHH with G26W, Q30K, L34Y, G35T, M77T, F94Y, F98L, Y102W
B20: T017000690 (VHH, not shown: small tags and cut ends)
VHH: B1 VHH with G26W, D27E, Q30K, L34Y, M77T, F94Y, F98L, Y102W
B21: T017000682 (VHH, not shown: small tags and cut ends)
VHH: B1 VHH with D27A, Q30K, L34Y, M77T, F94Y, F98L, Y102W
B22: T017000686 (VHH, not shown: small tags and cut ends)
VHH: B1 VHH with D27S, Q30K, L34Y, M77T, F94Y, F98L, Y102W

Positions count from the first letter of the chain named.

The first experiment concerns the target T1, Cynomolgus …. Description: SPR ProteOn off-rate screen.
From the text: (§1) Unique ISVD clones, i.e. clones with a unique sequence, were subsequently selected and screened to determine their off-rate. To this purpose, the ISVD containing periplasmic extracts were screened on huTCR-zipper and cyTCR-zipper protein by SPR on a ProteOn XPR36 instrument. The zipper proteins were immobilized on a GLC sensor chip (between 4300 and 5100RU) via amine coupling chemistry, using EDC/sulfo-NHS for activation of the carboxyl groups on the chip surface (running buffer: HBS-EP+, pH7.4). Periplasmic extracts were injected at 1/10 dilution for 2 min (at a flow rate of 45 μL/min) and dissociation was followed for 900 s. A pulse of 100 s of 3 M MgCl2 at 45 μL/min was used for regeneration. […] Processed sensorgrams were fitted with the Langmuir model (1:1 interaction) using ProteOn Manager 3.1.0 (Version 3.1.0.6) software.
As a reminder, the koff is a measure of how fast the partners let go of each other. A high value points to fast dissociation. In turn, B1 gave a dissociation rate constant (koff) of 0.00701 s⁻¹.

The target in a further experiment is T1, Cynomolgus …. Description: SPR ProteOn off-rate screen. This is another data set of the same source.
From the text: as §1
B2 gave a koff of 0.0167 s⁻¹. Same read-out and setting: under B3 stands 0.011 s⁻¹; under B4, 0.00867 s⁻¹. The same measure, in the same setting: the result for B5 reads 0.0107 s⁻¹; that for B6, 0.00895 s⁻¹; that for B7, 0.0118 s⁻¹. The same measure, in the same setting: the result for B8 reads 0.00936 s⁻¹; that for B9, 0.0109 s⁻¹. B10: the koff is 0.0118 s⁻¹.

For B11, the off-rate constant (koff) came out at 0.00939 s⁻¹.

B12 displayed a koff of 0.0102 s⁻¹. On the same count and under the same terms, the result for B13 reads 0.00957 s⁻¹.

A further experiment deals with T1, Cynomolgus …. The experiment in a line: SPR ProteOn off-rate screen. The source holds these as a separate data set.
From the text: as §1
As for B1, the koff stood at 0.00642 s⁻¹. On the same count and under the same terms, the result for B14 reads 0.058 s⁻¹. Consider B15, for which the koff was determined as 0.0107 s⁻¹. The same measure, in the same setting: under B16 stands 0.00419 s⁻¹; under B17, 0.0147 s⁻¹.

A further experiment addresses T1, Cynomolgus …. The experiment in a line: SPR ProteOn off-rate screen. The source holds these as a separate data set.
From the text: as §1
B18 returned a koff of 0.0162 s⁻¹.

For the next experiment, the target named is T2, Human T cell receptor on human primary …. Description: flow cytometry, human primary T cells. In general terms: A flow cytometer gives signals particle by particle.
Method: The ISVD variants were characterized for binding to CHO-K1 huTCR(2XN9)/huCD3 or to human and cynomolgus primary T cells. […] Next, cells were washed 3 times with FACS buffer and incubated with 1 μg/ml ANTI-FLAG® M2 Ab (Sigma, F1804) and washed again. […] Subsequently, cells were resuspended in FACS buffer supplemented with 5 nM TO-PRO®-3 Iodide to distinguish live from dead cells, which are removed during the gating procedure. Cells were analyzed using a FACS Array flow cytometer (BD Biosciences) and Flowing Software. First a P1 population which represented more than 80% of the total cell population was selected based on FSC-SSC distribution. In this gate, 10000 cells were counted during acquisition. From this population the TO-PRO®-3+cells (dead cells) were excluded and the mean fluorescence intensity (MFI) PE value was calculated.
In general, EC50 refers to the concentration needed to bring the measured effect to its halfway point. Take B19: the EC50 came to 66 nM. Still for that read-out and setting: under B20 stands 66 nM; under B21, 58 nM; under B22, 55 nM.
